From paper PMC6048173, “Structural Insight into Substrate Specificity of 3-Hydroxypropionyl-Coenzyme A Dehydratase from Metallosphaera sedula” (Scientific Reports, 2018)

Experiments:
[1] = target: 3-Hydroxypropionyl-CoA dehydratase from Metallosphaera sedula (Metallosphaera sedula); experiment: SEC; analytical, Superdex increase 200 10/300 GL, 40 mM Tris-HCl pH 8.0, 150 mM NaCl; 1 mL of 1 mg/mL protein; calibrated with ferritin, conalbumin, carbonic anhydrase, ribonuclease A
[2] = target: 3-Hydroxypropionyl-CoA dehydratase from Metallosphaera sedula (Metallosphaera sedula); experiment: crystal structure; Ms3HPCD in complex with CoA, 1.8 Å, space group P21, six monomers in the asymmetric unit; crystals from 10% PEG 8000, 0.1 M sodium-potassium phosphate pH 6.2, 0.2 M NaCl, 10 mM EDTA, 20 °C
[3] = target: T1, 3-Hydroxypropionyl-CoA dehydratase (Ms3HPCD; 3HPCD; 3-HPCD) (Metallosphaera sedula, UniProt A4YI89); experiment: X-ray crystal structure, […] Å; conditions: co-purified, CoA not added during expression or purification; substrate binding site between two monomers; crystals at pH 6.2, 20 °C
T1 construct: gene Msed_2001; Met1-Lys256, C-terminal 6xHis tag (pET30a), expressed in E. coli BL21(DE3)-T1R; hexamer (dimer of trimers)
T1 sequence (A4YI89 whole entry): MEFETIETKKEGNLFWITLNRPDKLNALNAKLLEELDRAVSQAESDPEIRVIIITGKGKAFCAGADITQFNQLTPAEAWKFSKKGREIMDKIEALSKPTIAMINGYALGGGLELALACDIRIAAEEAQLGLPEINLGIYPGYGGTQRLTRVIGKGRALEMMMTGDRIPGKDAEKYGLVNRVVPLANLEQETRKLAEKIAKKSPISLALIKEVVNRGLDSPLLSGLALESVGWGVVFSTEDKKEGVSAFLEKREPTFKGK

stoichiometry N [1]	stoichiometry N [2]	Compound	X-ray crystal structure, 1.8 Å [3]
6	6	3-Hydroxypropionyl-CoA dehydratase from Metallosphaera sedula (enzyme)	–
–	–	CC(C)(COP(=O)(O)OP(=O)(O)OC[C@H]1O[C@@H](n2cnc3c(N)ncnc32)[C@H](O)[C@@H]1OP(=O)(O)O)[C@@H](O)C(=O)NCCC(=O)NCCS [CoA]	In our current structure, the CoA molecule is tightly bound at the substrate binding site
